Like-named read-outs stand apart in the source and are kept apart here. Values belong to the substance of their own block, whether it stands above or below them.
Assays:
[1] = target: proteins from 32P or 35S-labeled HeLa cell lysates; assay: GST pull-down from labeled HeLa lysates pretreated with CIP, PP1 and PP2A
EQPLpTPVTDL = assay: fluorescence anisotropy, GST-WW-domain on fluorescein-labelled peptide
WFYpSPFLE [2] = assay: as above
WFYpSPFLE [3] = assay: fluorescence anisotropy; low affinity site
WFYpSPFLE [4] = assay: fluorescence anisotropy; high affinity site
[5] = target: tau peptide (pT-231), SEQ ID NO: 20; assay: ELISA on tau peptide
[6] = target: tau peptide (pT-231), SEQ ID NO: 20; assay: ELISA on tau peptides
[7] = target: tau peptide (pT-231), SEQ ID NO: 20; assay: ELISA on tau peptides; remark: listed apart in the source
WFYpSPFLE [8] = assay: fluorescence anisotropy with fluorescein labeled Pintide; high affinity site
[9] = target: Amyloid Precursor Protein Peptide … (pT-668); assay: ELISA on amyloid precursor protein peptide; binder not labelled in the row, taken as Pin1
WFYpSPFLE [10] = assay: fluorescence anisotropy; Table 2 prints 1.0 for this pair
[11] = target: tau peptide … (pT-231), SEQ ID NO: 29; assay: ELISA on tau peptide
GST-Pin1 (human) = GST-Pin1 (human) (UniProt Q13526); assay: competition with MPM-2 antigens for GST-Pin1, pull-down and MPM-2 immunoblot
[12] = target: GST-WW-domain of Pin1 (human) (UniProt Q13526); assay: competition with MPM-2 antigens for GST-WW-domain of Pin1, pull-down and MPM-2 immunoblot

Substance: GST-Pin1 (from UniProt Q13526 1-163) (enzyme)
Kd (WFYpSPFLE [3]): 13 µM
Kd (WFYpSPFLE [4]): 1.2 µM

Substance: GST-Pin1^S16E (from UniProt Q13526 1-163) (enzyme)
Kd (WFYpSPFLE [3]): 10.5 µM

Substance: GST-Pin1^S18E (from UniProt Q13526 1-163) (enzyme)
Kd (WFYpSPFLE [3]): 12 µM
Kd (WFYpSPFLE [4]): 1 µM

Substance: GST-Pin1^W34A (from UniProt Q13526 1-163) (enzyme)
Kd (WFYpSPFLE [3]): 14 µM

Substance: Pin1 (from UniProt Q13526 1-163) (enzyme)
Binding (OD @ 405 nm) [5]: 1.46 OD 405 nm
Kd [6]: 0.025 µM
Kd [7]: 0.04 µM
Kd (WFYpSPFLE [3]): 11 µM
Kd (WFYpSPFLE [4]): 1.2 µM
Kd (WFYpSPFLE [8]): 1.2 µM
Binding (OD @ 405 nm) [9]: 1.81 OD 405 nm

Substance: Pin1 PPIase domain (from UniProt Q13526 47-163) (enzyme)
Kd (WFYpSPFLE [3]): 15 µM

Substance: Pin1^R14A (from UniProt Q13526 1-163) (enzyme)
Binding (OD @ 405 nm) [11]: 1.3 OD 405 nm
Kd (WFYpSPFLE [8]): 2 µM

Substance: Pintide (WFYpSPRLKK) (peptide)
peptide concentration at which significant competition was detected (GST-Pin1 (human)): 50 µM
peptide concentration of complete competition (GST-Pin1 (human)): 250 to 500 µM
peptide concentration at which significant competition was detected [12]: 50 µM
peptide concentration of complete competition [12]: 250 to 500 µM

Next, values leading:

fold reduction of binding after pretreatment of lysates with Ser phosphatases [1]: 10 fold
Substance: GST-Nedd4 WW-domain-1 (from UniProt P46935 249-282)

Kd (EQPLpTPVTDL): 20 µM
Kd (WFYpSPFLE [2]): 10 µM
fold reduction of binding after pretreatment of lysates with Ser phosphatases [1]: 10 fold
Substance: GST-Nedd4 WW-domain-2 (from UniProt P46935 405-438)

Kd (WFYpSPFLE [3]): 13.5 µM
Kd (WFYpSPFLE [4]): 2 µM
Substance: GST-Pin1^R14A (from UniProt Q13526 1-163) (enzyme)

Kd (WFYpSPFLE [3]): 10.5 µM
Kd (WFYpSPFLE [4]): 1.2 µM
Substance: GST-Pin1^S16A (from UniProt Q13526 1-163) (enzyme)

Kd (WFYpSPFLE [3]): 13.5 µM
Substance: GST-Pin1^Y23A (from UniProt P08515 1-218; Q13526 1-163) (enzyme)

Kd (EQPLpTPVTDL): 2.2 µM
Kd (WFYpSPFLE [2]): 1 µM
Substance: GST-WW-domain of Pin1 (from UniProt Q13526 1-54)

Kd (WFYpSPFLE [4]): 1 µM
Kd (WFYpSPFLE [10]): 1.2 µM
Substance: Pin1 WW-domain (from UniProt Q13526 1-54)

Kd (WFYpSPFLE [8]): 1.2 µM
Substance: Pin1^S16A (from UniProt Q13526 1-163) (enzyme)

Kd (WFYpSPFLE [8]): 5 µM
Substance: Pin1^Y23F (from UniProt Q13526 1-163) (enzyme)

Reference: US20050282740A1
